Changes are numbered by the printed parent chain. Names may count otherwise.
Legend:
Assay type in all cases: biochemical, human
[1] = substrate: O=[N+]([O-])c1ccc(O)cc1; test: Substrate kinetics of recombinant SULT1A3; details: other: recombinant SULT1A3; 3.9 to 3000 μM 4-nitrophenol; mean±SEM of nine
[2] = substrate: O=[N+]([O-])c1ccc(O)cc1; test: Substrate kinetics of recombinant SULT1A1*3; details: other: recombinant SULT1A1*3; 0.02 to 5.0 μM 4-nitrophenol; mean±SEM of nine
Method: (§1) Unless otherwise stated, concentrations of 4-nitrophenol and PAPS were 4 μM and 0.4 μM, respectively. Substrate kinetic experiments were conducted in the presence of a series of concentrations of 4-nitrophenol and PAPS to make it possible to calculate apparent Km values. Enzyme activity was expressed as nmoles of sulfate conjugated product formed per hr of incubation. Protein concentrations were measured by the dye-binding method of Bradford with bovine serum albumin (BSA) as a standard.
(§2) The concentration of 4-nitrophenol used to study each recombinant protein was the same as was used in the thermal stability experiments. All assays for the determination of apparent Km values, thermal stability or DCNP inhibition were performed in triplicate, and all experiments were performed at least three times, i.e., each of the data points shown subsequently represents the average of at least nine separate assays.
(§3) Apparent Km values were calculated by using the method of Wilkion with a computer program written by Cleland. […] Statistical comparisons of data were performed by ANOVA with the StatView program, version 4.5 (Abacus Concepts, Inc., Berkeley, Calif.).
(§4) Expression constructs for each of the common (frequencies≧1%) allozymes for SULT1A1 and SULT1A2 were used to transfect COS-1 cells. Selected biochemical and physical properties of the expressed enzymes were then determined. […]

[3] = substrate: O=[N+]([O-])c1ccc(O)cc1; test: Substrate kinetics of recombinant SULT1A1*1; details: other: recombinant SULT1A1*1; 0.02 to 5.0 μM 4-nitrophenol; mean±SEM of nine
Method: as §1, §2, §3, §4

[4] = substrate: O=[N+]([O-])c1ccc(O)cc1; test: Substrate kinetics of recombinant SULT1A2*1; details: other: recombinant SULT1A2*1; 0.08 to 10.0 μM 4-nitrophenol; mean±SEM of nine
Method: as §1, §2, §3, §4

[5] = substrate: O=[N+]([O-])c1ccc(O)cc1; test: Substrate kinetics of recombinant SULT1A2*2; details: other: recombinant SULT1A2*2; 1.0 to 1000 μM 4-nitrophenol; mean±SEM of nine
Method: as §1, §2, §3, §4

[6] = substrate: O=[N+]([O-])c1ccc(O)cc1; test: Substrate kinetics of recombinant SULT1A2*3; details: other: recombinant SULT1A2*3; 0.08 to 10.0 μM 4-nitrophenol; mean±SEM of nine
Method: as §1, §2, §3, §4

B1: SULT1A3 (Homo sapiens) (protein)
chain: MELIQDTSRPPLEYVKGVPLIKYFAEALGPLQSFQARPDDLLINTYPKSGTTWVSQILDMIYQGGDLEKCNRAPIYVRVPFLEVNDPGEPSGLETLKDTPPPRLIKSHLPLALLPQTLLDQKVKVVYVARNPKDVAVSYYHFHRMEKAHPEPGTWDSFLEKFMAGEVSYGSWYQHVQEWWELSRTHPVLYLFYEDMKENPKREIQKILEFVGRSLPEETMDFMVQHTSFKEMKKNPMTNYTTVPQELMDHSISPFMRKGMAGDWKTTFTVAQNERFDADYAEKMAGCSLSFRSEL
notes: made in house; host or cells: COS-1 cells, pCR3.1 vector, unpurified cytosol
For B1, the Km [1] was 4960 ± 810 µM.

B2: SULT1A1*3 (Homo sapiens) (protein)
chain: MELIQDTSRPPLEYVKGVPLIKYFAEALGPLQSFQARPDDLLISTYPKSGTTWVSQILDMIYQGGDLEKCHRAPIFMRVPFLEFKAPGIPSGMETLKDTPAPRLLKTHLPLALLPQTLLDQKVKVVYVARNAKDVAVSYYHFYHMAKVHPEPGTWDSFLEKFMVGEVSYGSWYQHVQEWWELSRTHPVLYLFYEDMKENPKREIQKILEFVGRSLPEETVDFVVQHTSFKEMKKNPMTNYTTVPQEFMDHSISPFMRKGMAGDWKTTFTVAQNERFDADYAEKMAGCSLSFRSEL
notes: as for B1
For B2, the Km [2] was 0.31 ± 0.01 µM.

B3: SULT1A1*1 (Homo sapiens) (protein)
chain: B2 chain
notes: as for B1
B3 gave a Km [3] of 0.88 ± 0.07 µM.

B4: SULT1A2*1 (Homo sapiens) (protein)
chain: MELIQDISRPPLEYVKGVPLIKYFAEALGPLQSFQARPDDLLISTYPKSGTTWVSQILDMIYQGGDLEKCHRAPIFMRVPFLEFKVPGIPSGMETLKNTPAPRLLKTHLPLALLPQTLLDQKVKVVYVARNAKDVAVSYYHFYHMAKVYPHPGTWESFLEKFMAGEVSYGSWYQHVQEWWELSRTHPVLYLFYEDMKENPKREIQKILEFVGRSLPEETVDLMVEHTSFKEMKKNPMTNYTTVRREFMDHSISPFMRKGMAGDWKTTFTVAQNERFDADYAKKMAGCSLSFRSEL
notes: as for B1
B4 was tested, and the Km [4] was 8.70 ± 1.10 µM.

B5: SULT1A2*2 (Homo sapiens; I7T/N235T) (protein)
chain: B4 chain with I7T, N235T
notes: as for B1
B5 gave a Km [5] of 373 ± 33 µM.

B6: SULT1A2*3 (Homo sapiens; P19L) (protein)
chain: B4 chain with P19L
notes: as for B1
B6 showed a Km [6] of 5.65 ± 1.14 µM.

Reference: US20040235098A1, “Sulfotransferase sequence variants” (Mayo Foundation for Medical Education and Research, a …, priority 1998, published 2004)
